Results as given in patent publication US20260250363A1 (AP BIOSCIENCES, published 2026).
Like-named read-outs stand apart in the source and are kept apart here.

How the values were obtained:
[1] = molecular target: T1, SARS-CoV-2 Spike Protein, wild type (R&D, Cat. #10549-CV) (SARS-CoV-2, UniProt P0DTC2 16-1211)
[2] = molecular target: T2, SARS-CoV-2 C.37 Spike His Protein (R&D, Cat. #10887-CV) (SARS-CoV-2, UniProt P0DTC2 16-1211)
[3] = molecular target: T1, SARS-CoV-2 Spike Protein, wild type …; experiment: direct ELISA on coated spike
[4] = molecular target: T2, SARS-CoV-2 C.37 Spike His Protein (R&D, …); experiment: direct ELISA on coated spike
[5] = molecular target: T3, SARS-CoV-2 B.1.617.2 Spike Protein (R&D, Cat. #10878-CV) (SARS-CoV-2, UniProt P0DTC2 16-1211); experiment: direct ELISA on coated spike
[6] = molecular target: T4, SARS-CoV-2 AY.1 Spike Protein (R&D, Cat. #10922-CV) (SARS-CoV-2, UniProt P0DTC2 16-1211); experiment: direct ELISA on coated spike
[7] = molecular target: T5, SARS-CoV-2 B.1.1.529 Spike Protein (Omicron) (SARS-CoV-2, UniProt P0DTC2 16-1211); experiment: direct ELISA on coated spike
[8] = molecular target: T2, SARS-CoV-2 C.37 Spike His Protein (R&D, …); experiment: BLI (ForteBio), mAb on AHC sensor, spike in solution
[9] = molecular target: T3, SARS-CoV-2 B.1.617.2 Spike Protein …; experiment: as above
[10] = molecular target: T4, SARS-CoV-2 AY.1 Spike Protein (R&D, …); experiment: as above
[11] = molecular target: T5, SARS-CoV-2 B.1.1.529 Spike Protein …; experiment: as above
[12] = molecular target: Recombinant SARS-CoV-2 BA.2 Spike (GCN4-IZ) His Protein, CF (R&D, 11109-CV) (SARS-CoV-2, UniProt P0DTC2 16-1211); experiment: as above
[13] = molecular target: SARS-CoV-2 Spike Trimer, His Tag (BA.4/Omicron) (MALS verified) (AcroBiosystems, SPN-C5229) (SARS-CoV-2, UniProt P0DTC2 16-1213); experiment: as above
[14] = molecular target: SARS-CoV-2 Spike Trimer, His Tag (BA.5/Omicron) (MALS verified) (AcroBiosystems, SPN-C522e) (SARS-CoV-2, UniProt P0DTC2 16-1213); experiment: as above
[15] = molecular target: T1, SARS-CoV-2 Spike Protein, wild type …; experiment: as above
[16] = molecular target: T4, SARS-CoV-2 AY.1 Spike Protein (R&D, …); experiment: competition ELISA: blocks biotin-ACE2 binding to coated spike
[17] = molecular target: T5, SARS-CoV-2 B.1.1.529 Spike Protein …; experiment: as above
[18] = molecular target: T3, SARS-CoV-2 B.1.617.2 Spike Protein …; experiment: as above
[19] = molecular target: T5, SARS-CoV-2 B.1.1.529 Spike Protein …
[20] = molecular target: T5, SARS-CoV-2 B.1.1.529 Spike Protein …; remark: listed apart in the source
[21] = molecular target: T1, SARS-CoV-2 Spike Protein, wild type …; experiment: competition ELISA: blocks biotin-ACE2 binding to coated spike
[22] = molecular target: T2, SARS-CoV-2 C.37 Spike His Protein (R&D, …); experiment: as above
[23] = molecular target: T3, SARS-CoV-2 B.1.617.2 Spike Protein …; experiment: as above; remark: listed apart in the source
[24] = molecular target: T6, SARS-CoV-2 Spike Protein, wild type (R&D, Cat. #10549-CV) (SARS-CoV-2, UniProt P0DTC2 16-1211); experiment: direct ELISA on coated spike; remark: listed apart in the source
[25] = molecular target: T7, SARS-CoV-2 C.37 Spike His Protein (R&D, Cat. #10887-CV) (SARS-CoV-2, UniProt P0DTC2 16-1211); experiment: direct ELISA on coated spike; remark: listed apart in the source
[26] = molecular target: T8, SARS-CoV-2 AY.1 Spike Protein (R&D, Cat. #10922-CV) (SARS-CoV-2, UniProt P0DTC2 16-1211); experiment: direct ELISA on coated spike; remark: listed apart in the source
[27] = molecular target: T7, SARS-CoV-2 C.37 Spike His Protein (R&D, …); experiment: BLI (ForteBio), mAb on AHC sensor, spike in solution; remark: listed apart in the source
[28] = molecular target: T8, SARS-CoV-2 AY.1 Spike Protein (R&D, …); experiment: as above; remark: listed apart in the source
[29] = molecular target: T6, SARS-CoV-2 Spike Protein, wild type …; experiment: as above; remark: listed apart in the source
[30] = molecular target: T6, SARS-CoV-2 Spike Protein, wild type …; experiment: competition ELISA: blocks biotin-ACE2 binding to coated spike; remark: listed apart in the source
[31] = molecular target: T7, SARS-CoV-2 C.37 Spike His Protein (R&D, …); experiment: as above; remark: listed apart in the source
[32] = molecular target: T8, SARS-CoV-2 AY.1 Spike Protein (R&D, …); experiment: as above; remark: listed apart in the source
[33] = molecular target: T6, SARS-CoV-2 Spike Protein, wild type …; experiment: as above; remark: listed apart in the source
[34] = molecular target: T7, SARS-CoV-2 C.37 Spike His Protein (R&D, …); experiment: as above; remark: listed apart in the source
[35] = molecular target: T8, SARS-CoV-2 AY.1 Spike Protein (R&D, …); experiment: as above; remark: listed apart in the source
[36] = molecular target: T5, SARS-CoV-2 B.1.1.529 Spike Protein …; experiment: direct ELISA on coated spike, single dose (axis label 30nm)

B1: anti-SARS-CoV-2 antibody clone R4-1a-10 (antibody, V domains shown)
VH: QVQLQQWGAGLLKPSETLSLTCAVYGGSFSGNYWSWIRQPPGKGLEWIGEINHSGSTNYNPSLKSRVTISVDTSKNQFSLKLSSVTAADTAVYYCARGLLDYWGQGTLVTVSS
VL: QSVLTQPSSVSAAPWQRVTISCSGSDSNIGNNPVNWYQHVPGKAPTLLIYYDNFLASKISDRFSGSKSGTSASLAISGLQSDDEADYYCASWDDSLNGVVFGGGTKLTVLR
Question: B1 was tested. Which IC50 [1] did it give?
Answer: 77 nM

Question: And the IC50 [2]?
Answer: 73.8 nM

Question: What about the EC50 [3] of the same binder?
Answer: 0.479 nM

Question: What about the EC50 [4] of the same binder?
Answer: 1.99 nM

Question: What about the EC50 [5] of the same binder?
Answer: 0.0369 nM

Question: And the EC50 [6]?
Answer: 0.0407 nM

Question: What about the EC50 [7] of the same binder?
Answer: 0.0806 nM

Question: And the Kd [8]?
Answer: 1.01 nM

Question: What about the Kd [9] of the same binder?
Answer: 2.34 nM

Question: What about the Kd [10] of the same binder?
Answer: 1.79 nM

Question: What about the Kd [11] of the same binder?
Answer: 0.571 nM

Question: What about the Kd [12] of the same binder?
Answer: 3.23 nM

Question: What about the Kd [13] of the same binder?
Answer: 6.86 nM

Question: What about the Kd [14] of the same binder?
Answer: 7.86 nM

Question: What about the Kd [15] of the same binder?
Answer: 1.87 nM

Question: And the IC50 [16]?
Answer: 0.738 nM

Question: And the IC50 [17]?
Answer: 1.86 nM

Question: And the IC50 [18]?
Answer: 2.12 nM

B2: anti-SARS-CoV-2 antibody clone R4-11 (antibody, V domains shown)
VH: QVQLVQSGAEVKKPGSSVKVSCKASGGAFSSYAISWVRQAPGQGLEWMGRIIPILGIANYAQKFQGRVTITADKSTSTAYMELSSLRSEDTAVYYCAGGSGYYYWGQGTTVTVSS
VL: QSVLTQPPSVSEAPGQRVTISCSGSSSNIANNAVNWYQQLPGQAPKLLIFYDDLLPSWVSDRFSGSKSGTSASLAISGLQSEDEADYYCAAWDDSLNGPVFGGGTKLTVLR
Question: How did the EC50 [19] turn out when B2 was run?
Answer: 100 nM

Question: What about the IC50 [20] of the same binder?
Answer: 24 nM

Question: What about the EC50 [3] of the same binder?
Answer: 0.0622 nM

Question: What about the EC50 [4] of the same binder?
Answer: 0.0677 nM

Question: What about the EC50 [5] of the same binder?
Answer: 0.0559 nM

Question: And the EC50 [6]?
Answer: 0.0905 nM

Question: And the Kd [8]?
Answer: 1.23 nM

Question: What about the Kd [9] of the same binder?
Answer: 1.53 nM

Question: What about the Kd [10] of the same binder?
Answer: 2.29 nM

Question: And the Kd [11]?
Answer: 7.93 nM

Question: And the Kd [15]?
Answer: 4.05 nM

Question: What about the IC50 [21] of the same binder?
Answer: 3.99 nM

Question: And the IC50 [22]?
Answer: 1.8 nM

Question: And the IC50 [23]?
Answer: 1.14 nM

Question: What about the IC50 [16] of the same binder?
Answer: 0.787 nM

B3: Imdevimab (antibody, V domains shown)
VH: QVQLVESGGGVVQPGRSLRLSCAASGFTFSNYAMYWVRQAPGKGLEWVAVISYDGSNKYYADSVKGRFTISRDNSKNTLYLQMNSLRTEDTAVYYCASGSDYGDYLLVYWGQGTLVTVSS
VL: QSALTQPASVSGSPGQSITISCTGTSSDVGGYNYVSWYQQHPGKAPKLMIYDVSKRPSGVSNRFSGSKSGNTASLTISGLQSEDEADYYCNSLTSISTWVFGGGTKLTVLG
Question: B3 was tested. Which EC50 [24] did it give?
Answer: 0.0681 nM

Question: What about the EC50 [25] of the same binder?
Answer: 0.0734 nM

Question: What about the EC50 [26] of the same binder?
Answer: 0.0642 nM

Question: And the Kd [27]?
Answer: 0.563 nM

Question: What about the Kd [28] of the same binder?
Answer: 0.305 nM

Question: And the Kd [29]?
Answer: 2.32 nM

Question: What about the IC50 [30] of the same binder?
Answer: 4.85 nM

Question: What about the IC50 [31] of the same binder?
Answer: 3.77 nM

Question: And the IC50 [32]?
Answer: 1.18 nM

Question: And the IC50 [33]?
Answer: 4.82 nM

Question: What about the IC50 [34] of the same binder?
Answer: 3.25 nM

Question: And the IC50 [35]?
Answer: 0.697 nM

B4: anti-SARS-CoV-2 antibody clone R3-1a-1 (antibody, V domains shown)
VH: QVQLVQSGAEVKKPGSSVKVSCKASGGTFSSYAISWVRQAPGQGLEWMGGIIPILGIANYAQKFQGRVTITADKSTSTAYMELSSLRSEDTAVYYCARDGGGSSGYHDYWGQGTLVTVSS
VL: NFMLTQPHSVSESPGKTVTISCTRSSGSIASKYVQWYQQRPGNSPTTVIYEDDQRPSGVPDRFSASIDSSANTASLTISGLKPEDEADYYCQSYDDNTAVFGGGTHLTVLG
Question: B4 was tested. Which Kd [12] did it give?
Answer: 4.36 nM

Question: What about the Kd [13] of the same binder?
Answer: 10.3 nM

Question: What about the Kd [14] of the same binder?
Answer: 12.5 nM

Question: Does B4 bind [36]?
Answer: no binding (tested: 30 nM (printed 30nm))
